Experimental data reported in PMC2821881.

Molecular target: phosphorylated microtubule-associated protein (pMAP) labelled by the 12E8 antibody (chick (endogenous in primary chick neurons))
Experiment: FRET or BRET

FRET efficiency: 41%
Substance: human cofilin-GFP (from UniProt P23528 1-166) (natural protein)
